Reference: patent US20170362301A1 (Janssen / Centocor, published 2017)

Assays:
[1] = molecular target: T1, EGFR (form in the assay not stated) (human, UniProt P00533 25-645, limits assumed); assay: ELISA, NEM conjugate 100 nM
[2] = molecular target: T1, EGFR (form in the assay not stated); assay: ELISA, NEM conjugate 500 nM
[3] = molecular target: T1, EGFR (form in the assay not stated); assay: ELISA, NEM conjugate 10 nM

Row | Binder | binding ratio vs parent P54AR4-83v2 [1] [ratio] | binding ratio vs parent P54AR4-83v2 [2] [ratio] | binding ratio vs parent P54AR4-83v2 [3] [ratio]
1 | P54AR4-83v2 A3C, NEM conjugate (designed binder, NEM on Cys 3, His-tagged) LPCPKNLVVSEVTEDSARLSWDDPWAFYESFLIQYQESEKVGEAIVLTVPGSERSYDLTGLKPGTEYTVSIYGVHNVYKDTNMRGLPLSAIFTT | 0.88 | 0.82 | 0.34
2 | P54AR4-83v2 D23C, NEM conjugate (designed binder, NEM on Cys 23, His-tagged) LPAPKNLVVSEVTEDSARLSWDCPWAFYESFLIQYQESEKVGEAIVLTVPGSERSYDLTGLKPGTEYTVSIYGVHNVYKDTNMRGLPLSAIFTT | 0.2 | 0.4 | 0.02
3 | P54AR4-83v2 A26C, NEM conjugate (designed binder, NEM on Cys 26, His-tagged) LPAPKNLVVSEVTEDSARLSWDDPWCFYESFLIQYQESEKVGEAIVLTVPGSERSYDLTGLKPGTEYTVSIYGVHNVYKDTNMRGLPLSAIFTT | 1.06 | 0.95 | 0.95
4 | P54AR4-83v2 G73C, NEM conjugate (designed binder, NEM on Cys 73, His-tagged) LPAPKNLVVSEVTEDSARLSWDDPWAFYESFLIQYQESEKVGEAIVLTVPGSERSYDLTGLKPGTEYTVSIYCVHNVYKDTNMRGLPLSAIFTT | 0.02 | 0.21 | 0
5 | P54AR4-83v2 D80C, NEM conjugate (designed binder, NEM on Cys 80, His-tagged) LPAPKNLVVSEVTEDSARLSWDDPWAFYESFLIQYQESEKVGEAIVLTVPGSERSYDLTGLKPGTEYTVSIYGVHNVYKCTNMRGLPLSAIFTT | 0.97 | 0.91 | 0.7
6 | P54AR4-83v2 K79C, NEM conjugate (designed binder, NEM on Cys 79, His-tagged) LPAPKNLVVSEVTEDSARLSWDDPWAFYESFLIQYQESEKVGEAIVLTVPGSERSYDLTGLKPGTEYTVSIYGVHNVYCDTNMRGLPLSAIFTT | 0.99 | 0.93 | 0.9
7 | P54AR4-83v2 F31C, NEM conjugate (designed binder, NEM on Cys 31, His-tagged) LPAPKNLVVSEVTEDSARLSWDDPWAFYESCLIQYQESEKVGEAIVLTVPGSERSYDLTGLKPGTEYTVSIYGVHNVYKDTNMRGLPLSAIFTT | 0.34 | 0.62 | 0.04
8 | P54AR4-83v2 G42C, NEM conjugate (designed binder, NEM on Cys 42, His-tagged) LPAPKNLVVSEVTEDSARLSWDDPWAFYESFLIQYQESEKVCEAIVLTVPGSERSYDLTGLKPGTEYTVSIYGVHNVYKDTNMRGLPLSAIFTT | 0.99 | 0.9 | 0.84
9 | P54AR4-83v2 D15C, NEM conjugate (designed binder, NEM on Cys 15, His-tagged) LPAPKNLVVSEVTECSARLSWDDPWAFYESFLIQYQESEKVGEAIVLTVPGSERSYDLTGLKPGTEYTVSIYGVHNVYKDTNMRGLPLSAIFTT | 1.09 | 0.97 | 0.98
10 | P54AR4-83v2 L7C, NEM conjugate (designed binder, NEM on Cys 7, His-tagged) LPAPKNCVVSEVTEDSARLSWDDPWAFYESFLIQYQESEKVGEAIVLTVPGSERSYDLTGLKPGTEYTVSIYGVHNVYKDTNMRGLPLSAIFTT | 1 | 0.9 | 0.35
11 | P54AR4-83v2 G60C, NEM conjugate (designed binder, NEM on Cys 60, His-tagged) LPAPKNLVVSEVTEDSARLSWDDPWAFYESFLIQYQESEKVGEAIVLTVPGSERSYDLTCLKPGTEYTVSIYGVHNVYKDTNMRGLPLSAIFTT | 1.02 | 0.93 | 0.86
12 | P54AR4-83v2 A90C, NEM conjugate (designed binder, NEM on Cys 90, His-tagged) LPAPKNLVVSEVTEDSARLSWDDPWAFYESFLIQYQESEKVGEAIVLTVPGSERSYDLTGLKPGTEYTVSIYGVHNVYKDTNMRGLPLSCIFTT | 1.05 | 1.01 | 0.94
13 | P54AR4-83v2 K62C, NEM conjugate (designed binder, NEM on Cys 62, His-tagged) LPAPKNLVVSEVTEDSARLSWDDPWAFYESFLIQYQESEKVGEAIVLTVPGSERSYDLTGLCPGTEYTVSIYGVHNVYKDTNMRGLPLSAIFTT | 0.73 | 0.61 | 0.64
14 | P54AR4-83v2 G51C, NEM conjugate (designed binder, NEM on Cys 51, His-tagged) LPAPKNLVVSEVTEDSARLSWDDPWAFYESFLIQYQESEKVGEAIVLTVPCSERSYDLTGLKPGTEYTVSIYGVHNVYKDTNMRGLPLSAIFTT | 1.03 | 0.92 | 0.88
15 | P54AR4-83v2 H75C, NEM conjugate (designed binder, NEM on Cys 75, His-tagged) LPAPKNLVVSEVTEDSARLSWDDPWAFYESFLIQYQESEKVGEAIVLTVPGSERSYDLTGLKPGTEYTVSIYGVCNVYKDTNMRGLPLSAIFTT | 0.19 | 0.25 | 0.07
16 | P54AR4-83v2 K5C, NEM conjugate (designed binder, NEM on Cys 5, His-tagged) LPAPCNLVVSEVTEDSARLSWDDPWAFYESFLIQYQESEKVGEAIVLTVPGSERSYDLTGLKPGTEYTVSIYGVHNVYKDTNMRGLPLSAIFTT | 1.06 | 0.92 | 0.61
17 | P54AR4-83v2 E43C, NEM conjugate (designed binder, NEM on Cys 43, His-tagged) LPAPKNLVVSEVTEDSARLSWDDPWAFYESFLIQYQESEKVGCAIVLTVPGSERSYDLTGLKPGTEYTVSIYGVHNVYKDTNMRGLPLSAIFTT | 1.04 | 0.92 | 0.68
18 | P54AR4-83v2 I45C, NEM conjugate (designed binder, NEM on Cys 45, His-tagged) LPAPKNLVVSEVTEDSARLSWDDPWAFYESFLIQYQESEKVGEACVLTVPGSERSYDLTGLKPGTEYTVSIYGVHNVYKDTNMRGLPLSAIFTT | 1.04 | 0.93 | 0.91
19 | P54AR4-83v2 E11C, NEM conjugate (designed binder, NEM on Cys 11, His-tagged) LPAPKNLVVSCVTEDSARLSWDDPWAFYESFLIQYQESEKVGEAIVLTVPGSERSYDLTGLKPGTEYTVSIYGVHNVYKDTNMRGLPLSAIFTT | 1.08 | 0.95 | 0.9
20 | P54AR4-83v2 F27C, NEM conjugate (designed binder, NEM on Cys 27, His-tagged) LPAPKNLVVSEVTEDSARLSWDDPWACYESFLIQYQESEKVGEAIVLTVPGSERSYDLTGLKPGTEYTVSIYGVHNVYKDTNMRGLPLSAIFTT | 0.07 | 0.23 | 0
21 | P54AR4-83v2 E39C, NEM conjugate (designed binder, NEM on Cys 39, His-tagged) LPAPKNLVVSEVTEDSARLSWDDPWAFYESFLIQYQESCKVGEAIVLTVPGSERSYDLTGLKPGTEYTVSIYGVHNVYKDTNMRGLPLSAIFTT | 1 | 0.9 | 0.9
22 | P54AR4-83v2 G85C, NEM conjugate (designed binder, NEM on Cys 85, His-tagged) LPAPKNLVVSEVTEDSARLSWDDPWAFYESFLIQYQESEKVGEAIVLTVPGSERSYDLTGLKPGTEYTVSIYGVHNVYKDTNMRCLPLSAIFTT | 0.02 | 0.29 | 0.19
23 | P54AR4-83v2 E53C, NEM conjugate (designed binder, NEM on Cys 53, His-tagged) LPAPKNLVVSEVTEDSARLSWDDPWAFYESFLIQYQESEKVGEAIVLTVPGSCRSYDLTGLKPGTEYTVSIYGVHNVYKDTNMRGLPLSAIFTT | 1.02 | 0.91 | 0.91
24 | P54AR4-83v2 E14C, NEM conjugate (designed binder, NEM on Cys 14, His-tagged) LPAPKNLVVSEVTCDSARLSWDDPWAFYESFLIQYQESEKVGEAIVLTVPGSERSYDLTGLKPGTEYTVSIYGVHNVYKDTNMRGLPLSAIFTT | 1.27 | 1.15 | 1.11
25 | P54AR4-83v2 K40C, NEM conjugate (designed binder, NEM on Cys 40, His-tagged) LPAPKNLVVSEVTEDSARLSWDDPWAFYESFLIQYQESECVGEAIVLTVPGSERSYDLTGLKPGTEYTVSIYGVHNVYKDTNMRGLPLSAIFTT | 0.95 | 0.86 | 0.88
26 | P54AR4-83v2 E29C, NEM conjugate (designed binder, NEM on Cys 29, His-tagged) LPAPKNLVVSEVTEDSARLSWDDPWAFYCSFLIQYQESEKVGEAIVLTVPGSERSYDLTGLKPGTEYTVSIYGVHNVYKDTNMRGLPLSAIFTT | 1.07 | 0.93 | 0.89
27 | P54AR4-83v2 I91C, NEM conjugate (designed binder, NEM on Cys 91, His-tagged; also called 191C) LPAPKNLVVSEVTEDSARLSWDDPWAFYESFLIQYQESEKVGEAIVLTVPGSERSYDLTGLKPGTEYTVSIYGVHNVYKDTNMRGLPLSACFTT | 1.01 | 1 | 0.9
28 | P54AR4-83v2 D22C, NEM conjugate (designed binder, NEM on Cys 22, His-tagged) LPAPKNLVVSEVTEDSARLSWCDPWAFYESFLIQYQESEKVGEAIVLTVPGSERSYDLTGLKPGTEYTVSIYGVHNVYKDTNMRGLPLSAIFTT | 1.02 | 0.9 | 0.84
29 | P54AR4-83v2 G64C, NEM conjugate (designed binder, NEM on Cys 64, His-tagged) LPAPKNLVVSEVTEDSARLSWDDPWAFYESFLIQYQESEKVGEAIVLTVPGSERSYDLTGLKPCTEYTVSIYGVHNVYKDTNMRGLPLSAIFTT | 1.42 | 1.36 | 1.28
